Reference: patent US20240261333A1 (published 2024)

Experiments:
Experiment in all cases: co-IP with anti-FLAG, mass spectrometry; lysate of cells with N-FLAG B3GNT2
PJA2 = target: T1, PJA2 (human, UniProt O43164 2-708)
T1 construct: also called NP_055634.3
T1 sequence (looked up): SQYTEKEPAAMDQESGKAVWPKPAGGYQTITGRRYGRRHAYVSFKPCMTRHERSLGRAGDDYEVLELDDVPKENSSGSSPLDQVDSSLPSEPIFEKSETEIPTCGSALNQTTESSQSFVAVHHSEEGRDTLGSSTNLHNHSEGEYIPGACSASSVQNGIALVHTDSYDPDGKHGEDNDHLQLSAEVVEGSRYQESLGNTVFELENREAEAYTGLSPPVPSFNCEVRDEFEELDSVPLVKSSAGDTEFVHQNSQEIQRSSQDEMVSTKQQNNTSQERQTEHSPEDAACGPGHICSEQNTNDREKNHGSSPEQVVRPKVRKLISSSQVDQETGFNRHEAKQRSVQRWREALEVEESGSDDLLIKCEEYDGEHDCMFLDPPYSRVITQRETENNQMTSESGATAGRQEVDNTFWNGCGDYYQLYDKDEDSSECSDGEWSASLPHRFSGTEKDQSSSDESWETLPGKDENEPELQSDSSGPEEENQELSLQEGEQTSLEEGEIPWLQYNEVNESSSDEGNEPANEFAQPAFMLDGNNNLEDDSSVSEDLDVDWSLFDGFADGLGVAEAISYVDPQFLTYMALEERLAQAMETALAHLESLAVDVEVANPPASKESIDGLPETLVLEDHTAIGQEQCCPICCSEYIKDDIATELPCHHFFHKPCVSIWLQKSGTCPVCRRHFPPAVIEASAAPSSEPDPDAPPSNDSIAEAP
Protocol: (§1) Cells were plated in 10-cm cell culture dishes and grown to 60-80% confluency. For each condition, two biological replicates were harvested for co-IP. Cells were washed with PBS and 4 mL of lysis buffer (20 mM HEPES, 1% Triton X-100, 150 mM NaCl, 1 mM EDTA, and 10% glycerol) containing protease inhibitor cocktail was added. Cells were scraped and lysate was incubated at 4° C. under rotary agitation for 1 h. Lysate was centrifuged at 14,000×g for 10 min at 4° C. Supernatant was transferred to a new tube and an aliquot was taken as the input. […] For Western blots, 10 μg/mL Chicken Anti-FLAG (Aves labs ET-DY100) and IgY control (R&D Systems AB-101-C) antibodies were biotinylated (Thermo Fisher Scientific 90407) and added to the respective conditions. Lysates with antibodies were incubated at 4° C. under rotary agitation overnight. For each mL of lysate, 50 μL of Pierce Protein A/G Magnetic Beads (Mass spectrometry; Thermo Fisher Scientific 88803) or Pierce Streptavidin Magnetic Beads (Western blot; Thermo Fisher Scientific 88817) was washed twice with lysis buffer. Lysates with antibodies were added to the beads and incubated at 4° C. under rotary agitation for 4 h. Beads were washed with lysis buffer 3 times and resuspended in lysis buffer for storage.
(§2) Magnetic beads were resuspended in 100 mM Tris pH 7.8, reduced, alkylated and digested with trypsin at 37° ° C. overnight. This solution was subjected to solid phase extraction to concentrate the peptides and remove unwanted reagents followed by injection onto a Shimadzu HPLC with fraction collector. Eight fractions were collected and after concentration were injected on a Waters NanoAcquity HPLC equipped with a self-packed Aeris 3 μm C18 analytical column 0.075 mm by 20 cm, (Phenomenex). Peptides were eluted using standard reverse-phase gradients. The effluent from the column was analyzed using a Thermo Orbitrap Elite mass spectrometer (nanospray configuration) operated in a data dependent manner for 54 minutes. The resulting fragmentation spectra were correlated against the known database using Proteome Discover 1.4 (Thermo Fisher Scientific).

RPS4X = RPS4X (human, UniProt P62701 2-263)
Protocol: as §1, §2

CTHRC1 = target: T2, CTHRC1 (human, UniProt Q96CG8-3 1-229, limits assumed)
T2 construct: also called NP_001243028.1 (+1)
T2 sequence (Q96CG8 other isoform, or with tags, fused parts or gaps limits assumed): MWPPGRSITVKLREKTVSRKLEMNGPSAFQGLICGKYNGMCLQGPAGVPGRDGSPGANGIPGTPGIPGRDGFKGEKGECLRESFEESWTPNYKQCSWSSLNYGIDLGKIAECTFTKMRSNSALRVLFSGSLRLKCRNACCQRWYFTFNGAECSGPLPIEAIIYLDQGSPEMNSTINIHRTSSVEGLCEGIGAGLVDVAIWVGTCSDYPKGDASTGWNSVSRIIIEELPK
Protocol: as §1, §2

GANAB = target: T3, GANAB (human, UniProt Q14697 29-944)
T3 construct: also called NP_938148.1 (+1)
T3 sequence (looked up): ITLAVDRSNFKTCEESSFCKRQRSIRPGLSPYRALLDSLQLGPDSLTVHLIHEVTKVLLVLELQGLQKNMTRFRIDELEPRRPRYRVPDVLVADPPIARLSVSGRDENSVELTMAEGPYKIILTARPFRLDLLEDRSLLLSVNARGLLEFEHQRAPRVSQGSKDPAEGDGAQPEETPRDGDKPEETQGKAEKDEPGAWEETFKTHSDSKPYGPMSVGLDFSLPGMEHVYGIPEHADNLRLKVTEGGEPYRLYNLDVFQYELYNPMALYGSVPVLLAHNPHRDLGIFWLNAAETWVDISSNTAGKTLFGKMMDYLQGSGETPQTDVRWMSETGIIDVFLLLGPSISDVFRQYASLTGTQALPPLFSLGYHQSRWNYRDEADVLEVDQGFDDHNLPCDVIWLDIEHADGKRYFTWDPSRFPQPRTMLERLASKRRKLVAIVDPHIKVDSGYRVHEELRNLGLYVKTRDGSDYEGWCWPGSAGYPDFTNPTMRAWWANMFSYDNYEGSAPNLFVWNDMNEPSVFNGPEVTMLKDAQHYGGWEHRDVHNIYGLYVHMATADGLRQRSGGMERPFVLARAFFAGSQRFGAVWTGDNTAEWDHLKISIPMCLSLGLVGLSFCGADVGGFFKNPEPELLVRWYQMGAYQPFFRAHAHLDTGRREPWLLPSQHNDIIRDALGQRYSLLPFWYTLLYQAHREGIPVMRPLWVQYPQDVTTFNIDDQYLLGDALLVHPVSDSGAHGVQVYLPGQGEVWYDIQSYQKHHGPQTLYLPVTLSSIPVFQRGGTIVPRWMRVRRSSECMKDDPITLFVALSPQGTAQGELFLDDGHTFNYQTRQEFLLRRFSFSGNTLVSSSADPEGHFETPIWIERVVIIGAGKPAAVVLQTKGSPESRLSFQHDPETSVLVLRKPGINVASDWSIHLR
Protocol: as §1, §2

GALNT2 = target: T4, GALNT2 (human, UniProt Q10471 1-571, limits assumed)
T4 construct: also called NP_001278795.1 (+1)
T4 sequence (Q10471 whole entry): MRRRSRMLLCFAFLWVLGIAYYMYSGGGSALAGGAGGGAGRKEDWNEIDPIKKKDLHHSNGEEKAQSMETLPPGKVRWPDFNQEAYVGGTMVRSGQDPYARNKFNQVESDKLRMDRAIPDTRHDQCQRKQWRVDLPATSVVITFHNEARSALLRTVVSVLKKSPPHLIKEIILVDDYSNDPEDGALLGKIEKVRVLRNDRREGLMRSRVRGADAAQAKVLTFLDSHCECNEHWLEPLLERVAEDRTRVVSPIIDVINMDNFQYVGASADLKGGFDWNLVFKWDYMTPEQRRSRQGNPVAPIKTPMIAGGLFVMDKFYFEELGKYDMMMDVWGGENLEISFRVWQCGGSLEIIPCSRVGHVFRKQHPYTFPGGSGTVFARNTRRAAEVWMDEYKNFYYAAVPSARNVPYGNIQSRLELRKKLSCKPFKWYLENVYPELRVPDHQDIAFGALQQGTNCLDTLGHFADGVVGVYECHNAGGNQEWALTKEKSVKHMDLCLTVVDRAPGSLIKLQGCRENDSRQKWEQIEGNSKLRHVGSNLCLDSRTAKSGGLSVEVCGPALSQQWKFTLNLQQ
Protocol: as §1, §2

co-IP mass spectrometry count (PJA2): 0
co-IP mass spectrometry count (RPS4X): 14
co-IP mass spectrometry count (CTHRC1): 0
co-IP mass spectrometry count (GANAB): 0
co-IP mass spectrometry count (GALNT2): 0
B1: N-terminal FLAG tagged B3GNT2 (enzyme, human, UniProt Q9NY97 1-397, looked up)
chain: MSVGRRRIKLLGILMMANVFIYFIMEVSKSSSQEKNGKGEVIIPKEKFWKISTPPEAYWNREQEKLNRQYNPILSMLTNQTGEAGRLSNISHLNYCEPDLRVTSVVTGFNNLPDRFKDFLLYLRCRNYSLLIDQPDKCAKKPFLLLAIKSLTPHFARRQAIRESWGQESNAGNQTVVRVFLLGQTPPEDNHPDLSDMLKFESEKHQDILMWNYRDTFFNLSLKEVLFLRWVSTSCPDTEFVFKGDDDVFVNTHHILNYLNSLSKTKAKDLFIGDVIHNAGPHRDKKLKYYIPEVVYSGLYPPYAGGGGFLYSGHLALRLYHITDQVHLYPIDDVYTGMCLQKLGLVPEKHKGFRTFDIEEKNKNNICSYVDLMLVHSRKPQEMIDIWSQLQSAHLKC
notes: Bait of the co-IP; pulled down with mouse anti-FLAG (Millipore Sigma F3165) from cell lysate; also called N-FLAG B3GNT2; N-term FLAG; not shown: N-terminal FLAG tag
